The record followed here is US20150218243A1 (SAMSUNG ELECTRONICS, published 2015).

The assay addresses T1, recombinant full length Human Cdk6 (amino acids 1-326) with N-terminal His tag (Abcam ab84717) (human, UniProt Q00534 1-326).
T1 construct: range 1-326; Bought protein, coated on the ELISA plate at 1 ug/ml; also called Cdk6 protein; not shown: N-terminal His tag of the bought protein
Briefly: ELISA, Cdk6 coated on plate, p15 variant at 0-10 uM, anti-GST primary and HRP secondary antibody, absorbance 450 nm. In general terms: An ELISA detects its analyte on a solid surface through an enzyme-linked reagent.

T1 sequence (Q00534 whole entry, the tested form may be a part): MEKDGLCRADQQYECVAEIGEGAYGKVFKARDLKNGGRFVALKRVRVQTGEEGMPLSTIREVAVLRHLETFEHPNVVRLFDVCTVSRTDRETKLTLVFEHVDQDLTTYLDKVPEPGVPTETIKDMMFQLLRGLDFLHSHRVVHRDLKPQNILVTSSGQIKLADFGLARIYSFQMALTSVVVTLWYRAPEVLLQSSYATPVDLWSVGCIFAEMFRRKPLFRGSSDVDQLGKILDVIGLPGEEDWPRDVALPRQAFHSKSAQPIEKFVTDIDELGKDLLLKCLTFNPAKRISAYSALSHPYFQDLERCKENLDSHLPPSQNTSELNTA

B1: human p15 protein variant (SEQ ID NO: 2) (other)
chain: MREENKGMPSGGGSDEGLASAAARGLVEKVRQLLEAGADPNGVNRFGRRAIQVMMMGSARVAELLLKHGAEPNSADPATSTRPVHDAAREGFLDTLVVLHRAGARLDARDAWGRTPVDLAEERGHRDVAGYLRTATGD
notes: Expressed in E. coli from pET21b (NdeI/XhoI) and purified on a HisTrap column and by SEC; also called mt p15; p15INK4b variant
On to B1, for which the binding result is reported as “binds”.
